# From US20250059270A1 (SESEN BIO, published 2025)
# Changes are numbered by the printed parent chain.
# T1: dog IL-6 (dog, UniProt P41323 21-207)
# T1 construct: also called canine IL-6
# T1 sequence (looked up): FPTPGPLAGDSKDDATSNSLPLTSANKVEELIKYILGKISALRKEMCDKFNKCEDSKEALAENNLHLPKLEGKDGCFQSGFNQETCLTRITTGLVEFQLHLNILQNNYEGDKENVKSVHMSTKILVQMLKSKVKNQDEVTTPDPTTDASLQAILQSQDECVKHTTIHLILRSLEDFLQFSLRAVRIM
# T2: mouse IL-6 (mouse, UniProt P08505 25-211)
# T2 construct: also called rodent IL-6
# T2 sequence (looked up): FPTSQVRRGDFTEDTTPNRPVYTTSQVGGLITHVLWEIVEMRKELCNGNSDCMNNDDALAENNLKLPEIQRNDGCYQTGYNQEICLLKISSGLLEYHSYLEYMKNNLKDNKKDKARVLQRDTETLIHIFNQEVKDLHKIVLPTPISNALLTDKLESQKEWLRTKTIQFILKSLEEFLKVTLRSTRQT
# T3: rabbit IL-6 (rabbit, UniProt Q9MZR1 27-241, limits assumed)
# T3 sequence (looked up): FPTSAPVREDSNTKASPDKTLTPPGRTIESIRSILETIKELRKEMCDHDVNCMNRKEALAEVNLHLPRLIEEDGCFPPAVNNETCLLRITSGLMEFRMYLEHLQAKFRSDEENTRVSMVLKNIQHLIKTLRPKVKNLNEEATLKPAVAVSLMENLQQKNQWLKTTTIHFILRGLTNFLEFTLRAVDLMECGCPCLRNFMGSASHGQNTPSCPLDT
# T4: rat IL-6 (rat, UniProt P20607 25-211)
# T4 construct: also called rodent IL-6
# T4 sequence (looked up): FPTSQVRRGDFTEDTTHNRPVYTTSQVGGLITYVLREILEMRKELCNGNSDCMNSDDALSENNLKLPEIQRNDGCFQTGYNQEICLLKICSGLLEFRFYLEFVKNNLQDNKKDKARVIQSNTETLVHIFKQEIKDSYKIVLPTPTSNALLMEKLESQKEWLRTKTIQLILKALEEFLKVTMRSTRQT
# B1: 018 Fab (Fab, V domains shown)
# VH: QVQLVQSGAEVKKPGSSVKVSCKASGYALSNYLIEWVRQAPGQGLEWMGVITPGSGTINYAQKFQGRVTITADESTSTAYMELSSLRSEDTAVYYCARSRWDPLYYYALEYWGQGTTVTVSS
# VL: DIVMTQSPDSLAVSLGERATINCRASESVDNYGIPFMNWYQQKPGQPPKLLIYAASNRGSGVPDRFSGSGSGTDFTLTISSLQAEDVAVYYCQQSEEVPLTFGQGTKLEIKR
# notes: Fab with CK and IgG1 CH1 domains; also called Fab fragment of the h64-1.4 humanized antibody
# B2: h64 IgG (humanized 64, human IgG1) (antibody, V domains shown)
# VH: B1 VH with L29F
# VL: DIVMTQSPDSLAVSLGERATINCRASESVDNYGISFMNWYQQKPGQPPKLLIYAASNQGSGVPDRFSGSGSGTDFTLTISSLQAEDVAVYYCQQSKEVPLTFGQGTKLEIK
# notes: Expressed as inline fusions with the human IgG1 constant domains; also called the original humanized molecule; original h64 antibody
# Key:
# [1] = molecular target: T1, dog IL-6; experiment: monovalent affinity, method not stated
# [2] = molecular target: T2, mouse IL-6; experiment: monovalent affinity, method not stated
# [3] = molecular target: T3, rabbit IL-6; experiment: monovalent affinity, method not stated
# [4] = molecular target: T4, rat IL-6; experiment: monovalent affinity, method not stated
# [5] = molecular target: T5, human IL-6 (human, UniProt P05231 30-212); experiment: yeast system (yeast display, biotinylated human IL-6); original humanized h64, before affinity maturation; yeast system
# T5 construct: Recombinant protein was R&D Systems 206-IL/CF where stated; It was biotinylated in the yeast display assays and amine-coupled to the chip in SPR; also called free IL-6; biotinylated human IL-6
Binder,Kd [1],Kd [2],Kd [3],Kd [4],Kd [5]
B1,> 1000 nM,> 1000 nM,> 1000 nM,> 1000 nM,
B2,,,,,0.343 nM
